In data set [1] the target is F-actin. Briefly: co-sedimentation with F-actin in the presence of TM, densitometry of pellet (FIG. 3C).
The test system of data set [2] is F-actin.
Data set [3] deals with citrullinated F-actin (treated with PAD2).

Take “cardiac troponin I (TnI), non-citrullinated”: in data set [1], the percent of TnI present in the pellet was over 95%.

For “heavy meromyosin (HMM), non-citrullinated”, the “actomyosin HMM-ATPase activity” value in data set [2] turned out to be 0.32±0.01 nmol Pi. Besides, the “increase in actomyosin HMM-ATPase rate against unmodified F-actin” value in data set [3] is listed as “increased actomyosin HMM-ATPase rate by 55% compared to the unmodified F-actin”.

For “citrullinated cardiac troponin I (TnI treated with PAD2)”, in data set [1], the percent of TnI present in the pellet was over 95%. “citrullinated heavy meromyosin (HMM treated with PAD2)”: in data set [2], the “actomyosin HMM-ATPase activity” value came to 0.22±0.002 nmol Pi and the “decrease in actomyosin HMM-ATPase activity against non-citrullinated HMM” value is “corresponding to 30% decrease in the enzyme activity”. The “actomyosin HMM-ATPase activity (rate of ATP hydrolysis)” value in data set [3] came out at 0.368±0.005 nmol Pi.

These data come from patent publication US20180299467A1.
